Consider one molecule from PMC6195791, “C9orf72, a protein associated with amyotrophic lateral sclerosis (ALS) is a guanine nucleotide exchange factor” (PeerJ, 2018).

What all share (assay): SEC; 3x molar excess of Rab mixed with C9orf72, overnight on ice with 20 mM EDTA; gel filtration in 20 mM Tris pH 8.0, 300 mM NaCl, 2 mM DTT, 20 mM EDTA (Superdex75 in the methods, Superdex 200 10/30 in the legend); 21 uM C9orf72 and 48 uM Rab per run; fractions checked by SDS-PAGE and western blot
One data set has as its target T1, Rab11A (UniProt P62491 1-216).
T1 construct: Rab11A, amplified from its cDNA clone and put into pGEX-6p-1 (BamHI/XhoI); about 25 kDa after tag cleavage; source: E. coli BL21CodonPlus(DE3)RIPL, purified (GST Sepharose 4B, PreScission cleavage, second GST Sepharose pass); not shown: GST, N-terminal, cleaved
T1 sequence (looked up): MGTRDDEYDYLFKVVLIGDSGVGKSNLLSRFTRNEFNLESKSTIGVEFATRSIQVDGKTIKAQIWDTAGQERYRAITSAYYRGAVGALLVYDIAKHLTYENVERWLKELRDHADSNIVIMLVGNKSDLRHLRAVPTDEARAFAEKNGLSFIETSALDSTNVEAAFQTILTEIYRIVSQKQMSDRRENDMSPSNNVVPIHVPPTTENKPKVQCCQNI
The following applies: both partners purified.

Data set [1] concerns the molecule itself.
The target in a further data set is T2, Rab5A (UniProt P20339 1-215).
T2 construct: Rab5A, amplified from its cDNA clone and put into pGEX-6p-1 (BamHI/XhoI); about 25 kDa after tag cleavage; source: E. coli BL21CodonPlus(DE3)RIPL, purified (GST Sepharose 4B, PreScission cleavage, second GST Sepharose pass); not shown: GST, N-terminal, cleaved
T2 sequence (looked up): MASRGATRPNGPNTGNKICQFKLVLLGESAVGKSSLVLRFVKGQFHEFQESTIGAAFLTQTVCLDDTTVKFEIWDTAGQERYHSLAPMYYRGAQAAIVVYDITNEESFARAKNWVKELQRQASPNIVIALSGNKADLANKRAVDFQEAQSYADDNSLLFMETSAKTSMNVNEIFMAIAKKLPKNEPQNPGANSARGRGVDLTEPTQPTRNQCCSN
The following applies: both partners purified.

B1: C9orf72 (N-terminal His6, pOPINF-C9orf72) (natural protein, human, UniProt Q96LT7 1-481, looked up)
chain: MSTLCPPPSPAVAKTEIALSGKSPLLAATFAYWDNILGPRVRHIWAPKTEQVLLSDGEITFLANHTLNGEILRNAESGAIDVKFFVLSEKGVIIVSLIFDGNWNGDRSTYGLSIILPQTELSFYLPLHRVCVDRLTHIIRKGRIWMHKERQENVQKIILEGTERMEDQGQSIIPMLTGEVIPVMELLSSMKSHSVPEEIDIADTVLNDDDIGDSCHEGFLLNAISSHLQTCGCSVVVGSSAEKVNKIVRTLCLFLTPAERKCSRLCEAESSFKYESGLFVQGLLKDSTGSFVLPFRQVMYAPYPTTHIDVDVNTVKQMPPCHEHIYNQRRYMRSELTAFWRATSEEDMAQDTIIYTDESFTPDLNIFQDVLHRDTLVKAFLDQVFQLKPGLSLRSTFLAQFLLVLHRKALTLIKYIEDDTQKGKKPFKSLRNLKIDLDLTAEGDLNIIMALAEKIKPGLHSFIFGRPFYTSVQERDVLMTF
notes: the homology model counts residues up to 481; No tag cleavage is described; also called His6-C9orf72; recombinant C9orf72; source: Sf9, baculovirus, purified (HisTrap HP, Superdex200 size-exclusion chromatography); not shown: His6, N-terminal, kept
For the molecule B1, the “stoichiometry N” value with Rab11A and with Rab5A was 1 in each case. For the same molecule, the binding result in data set [1] is given as “binds”.

The stoichiometry N is the number of molecules, sites or subunits per partner or assembly.
